For series [1], the system named is pulmonary fibrosis, C57/BL6 mice (bleomycin or sham). Description: in vivo. Conditions: in vivo, iv. The series is classed as in vivo, mouse. On the procedure:
(§1) Pulmonary fibrosis was induced in 7-8-week-old male C57/BL6 mice by transtracheal administration of bleomycin (BM; 2.5 U/kg) in 50 μL of PBS under direct vision using a small cervical incision. Sham animals received only PBS. Animals were placed in a small-animal PET/SPECT/CT scanner (Triumph; TriFoil Imaging), equipped with inhalation anesthesia and heating pad. Each animal was anesthetized with isoflurane (4% for induction, 2-2.5% for maintenance in medical air) and body temperature was kept at 37-38° C. using a heating pad. The femoral vein was cannulated for intravenous delivery of the PET agent. Each mouse was injected with approximately 0.1 mL and 20-50 μCi of ^64Cu-CBP(n), 0.1 mL and 20-50 μCi of ^68Ga-CBP(n) and 0.1 mL and 10-20 μCi of Al^18F-CBP(n) in a 18 mM solution of sucrose in water, followed by saline flush. […] The lungs, blood, urine, heart, liver, left rectus femoris muscle, spleen, small intestine, kidneys, left femur bone were collected from all animals. The tissues were weighed, and radioactivity in each tissue was measured on a gamma counter (CobraII Auto gamma; Packard). The radioactivity in the lung was reported as percent injected dose per gram corrected with the average sham weight, which was calculated by dividing the counts of ^64Cu per average sham tissue weight in gram by the total of counts of the injected dose. The radioactivity in every other tissue was reported as percent injected dose per gram (% ID/g), which was calculated by dividing the counts of ^64Cu per gram of tissue by the total of counts of the injected dose. A p-value of less than 0.05 was considered significant. Uncertainties are expressed as the standard error of the mean.

Series [2] can be described thus: in vivo. The note with it: male, C57/BL6, mouse, in vivo, iv, total radioactivity, Biodistribution % ID/g, sm. intestine. The series is classed as in vivo, mouse. On the procedure: as §1
The conditions of series [3]: rat, in vivo. The procedure:
The pharmacokinetics and metabolic stability of the probes were evaluated in Adult male Wistar rats. The right femoral vein was cannulated for intravenous delivery of the PET agent and the right femoral artery was cannulated for blood sampling. Each animal was injected with approximately 50-70 μCi of ^64Cu-CBP(n) diluted in 0.2-0.3 mL with an 18 mM solution of sucrose in water, followed by saline flush. After probe injection, several blood draws were collected at 0, 2, 5, 10, 15, 30, 60 and 120 minutes post injection into ethylenediaminetetraacetic acid (EDTA) blood tubes. Blood was weighed, and radioactivity in the blood was measured on a gamma counter to assess clearance of total ^64Cu. The serum was isolated by centrifugation of the blood (10 minutes, 4950 rpm) and proteins were precipitated with a mixture of cold methanol/acetonitrile (1/1). Solids were removed by centrifugation and the supernatant was injected onto an analytic HPLC column. The eluent was collected every 30 seconds, and the activity of each fraction was measured using a gamma counter. The result was compared with standards of pure probe and probe immediately isolated from plasma (t=0 sample).

Series [4] has as its system pulmonary fibrosis, C57/BL6 mice (bleomycin or sham). The note with it: mouse, in vivo. The procedure:
Pulmonary fibrosis was induced in 7-8-week-old male C57/BL6 mice by transtracheal administration of bleomycin (BM; 2.5 U/kg) in 50 μL of PBS under direct vision using a small cervical incision. Sham animals received only PBS. Animals were placed in a small-animal PET/SPECT/CT scanner (Triumph; TriFoil Imaging), equipped with inhalation anesthesia and heating pad. Each animal was anesthetized with isoflurane (4% for induction, 1-1.5% for maintenance in medical air). After placement of an in-dwelling catheter in the femoral vein for probe administration, mice were positioned in the PET-CT and the probe was given as a bolus as the PET acquisition began. Mice were imaged continuously by PET for 120 minutes. […] Instrument calibration was performed with phantoms containing small known amounts of radioactivity. […] Reconstructed PET/CT data were quantitatively evaluated using AMIDE software package (Loening and Gambhir, 2003). […] The radioactivity concentration within organs was obtained from mean pixel values within the VOI volume and converted to counts per milliliter per minute and then divided by the injected dose (ID) to obtain an imaging VOI-derived percentage of the injected radioactive dose per cubic centimeter of tissue (% ID/cc). […] Instrument calibration was performed with phantoms containing small known amount of radioactivity. […]

The target in series [5] is T1, rat tail collagen (Rattus norvegicus, UniProt P02454+P02466).
T1 construct: from tissue; host or cells: rat tail
T1 sequence (P02454 152-1207 limits assumed): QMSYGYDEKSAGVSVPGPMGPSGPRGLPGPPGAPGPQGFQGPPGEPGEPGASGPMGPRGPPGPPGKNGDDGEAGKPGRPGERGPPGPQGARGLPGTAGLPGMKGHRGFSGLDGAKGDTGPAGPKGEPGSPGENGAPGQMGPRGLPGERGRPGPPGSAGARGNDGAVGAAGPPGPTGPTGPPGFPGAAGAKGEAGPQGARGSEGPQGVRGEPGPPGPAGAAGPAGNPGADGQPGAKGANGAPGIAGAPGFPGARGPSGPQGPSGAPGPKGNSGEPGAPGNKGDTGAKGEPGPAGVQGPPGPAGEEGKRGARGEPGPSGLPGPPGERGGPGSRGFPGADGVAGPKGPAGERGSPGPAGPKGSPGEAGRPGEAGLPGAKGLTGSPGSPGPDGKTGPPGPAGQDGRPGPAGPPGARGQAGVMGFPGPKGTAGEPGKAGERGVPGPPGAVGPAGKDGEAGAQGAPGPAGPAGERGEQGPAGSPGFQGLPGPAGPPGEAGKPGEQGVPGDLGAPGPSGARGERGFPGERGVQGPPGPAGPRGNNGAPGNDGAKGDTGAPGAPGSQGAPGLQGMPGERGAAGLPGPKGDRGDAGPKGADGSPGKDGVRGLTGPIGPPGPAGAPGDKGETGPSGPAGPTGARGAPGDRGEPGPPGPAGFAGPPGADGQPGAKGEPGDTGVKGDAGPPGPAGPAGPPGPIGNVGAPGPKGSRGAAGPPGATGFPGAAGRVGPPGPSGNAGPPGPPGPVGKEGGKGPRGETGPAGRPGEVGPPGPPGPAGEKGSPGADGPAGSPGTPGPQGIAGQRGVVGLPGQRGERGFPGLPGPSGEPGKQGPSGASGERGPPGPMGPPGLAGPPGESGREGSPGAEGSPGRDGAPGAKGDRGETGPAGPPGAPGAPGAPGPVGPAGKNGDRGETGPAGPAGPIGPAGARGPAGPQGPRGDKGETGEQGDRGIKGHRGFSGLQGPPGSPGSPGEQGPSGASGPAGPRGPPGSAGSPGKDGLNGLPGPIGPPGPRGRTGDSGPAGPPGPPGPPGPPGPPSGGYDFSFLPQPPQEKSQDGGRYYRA
T1 sequence (P02466 86-1125 limits assumed): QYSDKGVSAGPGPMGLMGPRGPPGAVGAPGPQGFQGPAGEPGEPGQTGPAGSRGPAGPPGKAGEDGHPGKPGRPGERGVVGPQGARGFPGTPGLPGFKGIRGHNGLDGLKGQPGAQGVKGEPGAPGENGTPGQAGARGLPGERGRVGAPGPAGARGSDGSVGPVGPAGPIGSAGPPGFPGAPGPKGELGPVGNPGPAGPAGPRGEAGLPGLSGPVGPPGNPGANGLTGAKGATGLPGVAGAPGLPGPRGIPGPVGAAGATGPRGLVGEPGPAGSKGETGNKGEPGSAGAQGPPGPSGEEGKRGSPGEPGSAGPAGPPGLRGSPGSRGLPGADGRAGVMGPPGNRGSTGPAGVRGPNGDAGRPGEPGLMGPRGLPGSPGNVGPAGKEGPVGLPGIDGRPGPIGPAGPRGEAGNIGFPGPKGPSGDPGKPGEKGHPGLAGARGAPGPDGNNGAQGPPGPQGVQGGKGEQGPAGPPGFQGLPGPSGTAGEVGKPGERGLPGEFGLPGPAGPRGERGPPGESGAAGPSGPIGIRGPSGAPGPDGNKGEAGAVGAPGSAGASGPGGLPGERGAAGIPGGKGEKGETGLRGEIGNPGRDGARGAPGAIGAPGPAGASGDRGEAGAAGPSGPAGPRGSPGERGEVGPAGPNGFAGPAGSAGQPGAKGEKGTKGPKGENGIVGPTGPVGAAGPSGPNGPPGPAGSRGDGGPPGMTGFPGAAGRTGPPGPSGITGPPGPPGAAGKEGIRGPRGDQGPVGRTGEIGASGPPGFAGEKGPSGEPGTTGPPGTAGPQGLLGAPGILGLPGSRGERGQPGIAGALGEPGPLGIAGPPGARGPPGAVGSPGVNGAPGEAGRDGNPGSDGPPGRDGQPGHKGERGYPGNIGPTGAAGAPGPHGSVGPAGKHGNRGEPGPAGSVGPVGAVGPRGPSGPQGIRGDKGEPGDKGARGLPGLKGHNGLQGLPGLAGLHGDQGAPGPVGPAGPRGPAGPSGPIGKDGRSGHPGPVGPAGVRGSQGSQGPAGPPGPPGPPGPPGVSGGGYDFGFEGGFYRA
As to the kind of experiment: rat tail collagen-binding assay. Conditions: 2 hours at room temperature, single binding site model. On the procedure:
Binding isotherms were obtained by following a method previously reported. (Caravan, P., Das, B., Dumas, S., Epstein, F. H., Helm, P. A., Jacques, V., Koerner, S., Kolodziej, A., Shen, L., Sun, W., Zhang, Z., Angewandte Chemie, 2007, 119(43), 8319-8321.) Briefly, increasing concentrations of a mixture of ^63/65Cu-CBP(n) and ^64Cu-CBP(n) were added to collagen containing wells. […] An aliquot of each solution was reserved as a measure of the total concentration. The plates were incubated on a shaker table (300 rpm) for 2 hours at room temperature to allow the compound to bind. After 2 hours, the supernatant from each well (with or without collagen) was assayed for ^64Cu content. The relative amount of free, unbound compound in the sample supernatants and the amount of compound in the reserved (total) sample were determined by using a gamma counter. The bound concentration is [Total]−[Free]. The concentration of ^63/65Cu-CBP(n) was less than the collagen concentration and the data were fit to a model of a single binding site with dissociation constant, Kd.

One may read the tissue uptake as the percentage of the injected dose found per gram of tissue. The term Kd denotes the free concentration of one partner at which half of the binding sites on the other are occupied at equilibrium, for simple one-to-one binding. Low values mean tighter binding, high ones weaker binding. As to `CC(C)C[C@H](NC(=O)[C@@H]1CSSC[C@H](NC(=O)[C@H](Cc2c[nH]cn2)NC(=O)[C@H](Cc2c[nH]c3ccccc23)NC(=O)[C@H](CCCCNC(=O)CNC(=O)CCC(C(=O)O)N2CCN(CC(=O)O)CCN(CC(=O)O)CC2)NC(=O)CNC(=O)CCC(C(=O)O)N2CCN(CC(=O)O)CCN(CC(=O)O)CC2)C(=O)N[C@@H]([C@@H](C)O)C(=O)N[C@@H]([C@@H](C)O)C(=O)N[C@@H](CCCCNC(=O)CCC(C(=O)O)N2CCN(CC(=O)O)CCN(CC(=O)O)CC2)C(=O)N[C@@H](Cc2ccccc2)C(=O)N2CCC[C@H]2C(=O)N[C@@H](Cc2c[nH]cn2)C(=O)N[C@@H](Cc2c[nH]cn2)C(=O)N[C@@H](Cc2ccc(O)cc2)C(=O)N1)C(=O)N[C@@H](Cc1ccc(O)cc1)C(=O)N[C@@H](Cc1ccc(-c2ccccc2)cc1)C(N)=O` (single isomer, unassigned) [CBP7], the “Biodistribution % ID/g, sm. intestine” value in series [1] (male, C57/BL6, mouse, 2 h) was determined as 0.877 ± 0.077 % ID/g. Besides, in series [1] (mouse), the route of excretion entry is “excreted mainly through the kidneys”. In addition, in series [2], the tissue uptake at 2 h was 0.853 ± 0.246 %ID/g. In series [3], the “metabolic stability compared with CBP(n) probes with a single NODAGA chelator” value is listed as “more metabolically stable”. Also, the “Mean PET activity in heart and muscle, BM-treated vs sham, in words” value in series [4] is recorded as “not significantly different”. In series [5], the affinity, expressed as Kd, was 2.4 ± 1.5 µM.

Values taken from patent US10471162B2, “Collagen targeted imaging probes” (priority 2014, dated 2019).
